Assay results: publication PMC11672753 (Plant Biotechnology Journal, 2024)

Target: T1, SARS-CoV-2 Spike Wuhan (recombinant) (SARS-CoV-2, Wuhan-Hu-1, UniProt P0DTC2)
T1 construct: also called recombinant SARS-CoV-2 Spike
Assay: ELISA; plates coated with 2 μg/mL SARS-CoV-2 Spike Wuhan in PBS; antibodies from 5 nM, 10-fold serial dilutions in PBS/0.5% BSA, 1 h RT; detected with goat anti-human IgG (H + L) peroxidase
Conditions: both partners purified

Binder | binding result
M15-YTE (antibody, V domains shown) VH: QVQLLESGGGLVQPGGSLRLSCAASGFTFSSYAMSWVRQAPGKGLEWASAISGSGGSTYYADSVEGRFTISRDNSKNTLYLQMNSLRAEDTAVYYCAKDTGYCGDDCYIKLIRGGPDYWGQGTLVTVSS VL: DIVMTQSPLSLPVTLGQPASISCRSSQSLVYSDGNTFLNWFQQRPGQSPRRLIYQVSNRDSGVPDRFSGSGSGTDFTLKISRVEAEDVGVYYCMQGTHWPRTFGQGTKLEIK | binds
M15 (plant-produced COVA2-15, conventional IgG1) (antibody, V domains shown) VH: QVQLLESGGGLVQPGGSLRLSCAASGFTFSSYAMSWVRQAPGKGLEWASAISGSGGSTYYADSVEGRFTISRDNSKNTLYLQMNSLRAEDTAVYYCAKDTGYCGDDCYIKLIRGGPDYWGQGTLVTVSS VL: DIVMTQSPLSLPVTLGQPASISCRSSQSLVYSDGNTFLNWFQQRPGQSPRRLIYQVSNRDSGVPDRFSGSGSGTDFTLKISRVEAEDVGVYYCMQGTHWPRTFGQGTKLEIK | binds
S15-YTE (Fc fusion) VH: QVQLLESGGGLVQPGGSLRLSCAASGFTFSSYAMSWVRQAPGKGLEWASAISGSGGSTYYADSVEGRFTISRDNSKNTLYLQMNSLRAEDTAVYYCAKDTGYCGDDCYIKLIRGGPDYWGQGTLVTVSS VL: DIVMTQSPLSLPVTLGQPASISCRSSQSLVYSDGNTFLNWFQQRPGQSPRRLIYQVSNRDSGVPDRFSGSGSGTDFTLKISRVEAEDVGVYYCMQGTHWPRTFGQGTKLEIK | binds
S15 (plant-produced COVA2-15, single-chain (sc)Fv-Fc format) (Fc fusion, human) VH: QVQLLESGGGLVQPGGSLRLSCAASGFTFSSYAMSWVRQAPGKGLEWASAISGSGGSTYYADSVEGRFTISRDNSKNTLYLQMNSLRAEDTAVYYCAKDTGYCGDDCYIKLIRGGPDYWGQGTLVTVSS VL: DIVMTQSPLSLPVTLGQPASISCRSSQSLVYSDGNTFLNWFQQRPGQSPRRLIYQVSNRDSGVPDRFSGSGSGTDFTLKISRVEAEDVGVYYCMQGTHWPRTFGQGTKLEIK | binds
M15-HDEL (antibody, V domains shown) VH: QVQLLESGGGLVQPGGSLRLSCAASGFTFSSYAMSWVRQAPGKGLEWASAISGSGGSTYYADSVEGRFTISRDNSKNTLYLQMNSLRAEDTAVYYCAKDTGYCGDDCYIKLIRGGPDYWGQGTLVTVSS VL: DIVMTQSPLSLPVTLGQPASISCRSSQSLVYSDGNTFLNWFQQRPGQSPRRLIYQVSNRDSGVPDRFSGSGSGTDFTLKISRVEAEDVGVYYCMQGTHWPRTFGQGTKLEIK | binds
M15-FX (antibody, V domains shown) VH: QVQLLESGGGLVQPGGSLRLSCAASGFTFSSYAMSWVRQAPGKGLEWASAISGSGGSTYYADSVEGRFTISRDNSKNTLYLQMNSLRAEDTAVYYCAKDTGYCGDDCYIKLIRGGPDYWGQGTLVTVSS VL: DIVMTQSPLSLPVTLGQPASISCRSSQSLVYSDGNTFLNWFQQRPGQSPRRLIYQVSNRDSGVPDRFSGSGSGTDFTLKISRVEAEDVGVYYCMQGTHWPRTFGQGTKLEIK | binds
S15-FX (Fc fusion) VH: QVQLLESGGGLVQPGGSLRLSCAASGFTFSSYAMSWVRQAPGKGLEWASAISGSGGSTYYADSVEGRFTISRDNSKNTLYLQMNSLRAEDTAVYYCAKDTGYCGDDCYIKLIRGGPDYWGQGTLVTVSS VL: DIVMTQSPLSLPVTLGQPASISCRSSQSLVYSDGNTFLNWFQQRPGQSPRRLIYQVSNRDSGVPDRFSGSGSGTDFTLKISRVEAEDVGVYYCMQGTHWPRTFGQGTKLEIK | binds
S15-HDEL (Fc fusion) VH: QVQLLESGGGLVQPGGSLRLSCAASGFTFSSYAMSWVRQAPGKGLEWASAISGSGGSTYYADSVEGRFTISRDNSKNTLYLQMNSLRAEDTAVYYCAKDTGYCGDDCYIKLIRGGPDYWGQGTLVTVSS VL: DIVMTQSPLSLPVTLGQPASISCRSSQSLVYSDGNTFLNWFQQRPGQSPRRLIYQVSNRDSGVPDRFSGSGSGTDFTLKISRVEAEDVGVYYCMQGTHWPRTFGQGTKLEIK | binds
